Experimental data reported in patent US20100297703A1 (published 2010).

Columns and labels:
Test in all cases: anti-FLAG purification of YoeB-3×FLAG from cell surface extract, SDS-PAGE band integration of the co-purified protein
[1] = biological target: T1, CwlF protein (Bacillus subtilis, UniProt P54421 26-334)
T1 construct: Endogenous protein of the WE1YoeB3FL strain, co-purified with YoeB-3×FLAG
Experimental: (§1) After the pre-culture, the pre-cultured strain was inoculated in 50 ml of LB liquid medium to bring the OD₆₀₀ value to 0.01, and main culture was conducted until the OD₆₀₀ value reached 2.0. After the completion of the culture, the culture solution was centrifuged at 10,000 rpm for 10 minutes. The supernatant was removed and the precipitate was washed with 25 mM Tris-HCl (pH 7.2). The washed precipitate was suspended in 3M LiCl (25 mM Tris-HCl, pH 7.2) to a density of 10 μl/OD, and the suspension was allowed to stand on ice for 20 minutes. Thereafter, centrifugation was carried out at 4° C. and 10,000 rpm for 10 minutes. The supernatant was recovered, TCA (trichloroacetic acid) was added to a final concentration of 5%, the mixture was thoroughly mixed, and the resulting suspension was allowed to stand on ice for 60 minutes. Thereafter, centrifugation was carried out at 4° C. and 15,000 rpm for 5 minutes. The supernatant was removed, and the precipitate was rinsed with 70% ethanol to thoroughly remove TCA. Thus, outer surface proteins were extracted from the WE1YoeB3FL strain and the WE1E3FL strain, respectively.
(§2) The mixture was mildly (8 rpm) agitated at 4° C. for 1 hour. Thereafter, centrifugation was carried out at 5,000 rpm for 1 minute. The supernatant was removed while carefully refraining from suctioning the precipitated gel. Thereafter, 500 μl of TBS buffer was added to prepare a suspension. Thereafter, the gel was transferred to the Spin Column (Micro Bio Spin Chromatography Columns (BIO RAD)), and the gel was trapped via centrifugation at 1,000 g for 30 seconds. Thereafter, the resultant was washed three times with 500 μl of TBS buffer. Subsequently, 100 μl of Glycine HCl elution buffer (0.1M glycine-HCl) was sequentially added thereto and thoroughly agitated. Elution was carried out 1 minute later at 1,000 g for 30 seconds, and this procedure was repeated two times. The products were combined to prepare an eluted solution.
(§3) Subsequently, the band pattern of the resulting eluted solution was inspected via SDS-PAGE. Electrophoresis was carried out by charging proteins in amounts corresponding to the amount extracted from the cells (OD₆₀₀=200) to the relevant lanes.

[2] = biological target: YojL protein (Bacillus subtilis, UniProt O31852 27-414)
Experimental: as §1, §2, §3

[3] = biological target: T2, CwlE protein (Bacillus subtilis, UniProt O07532 27-488)
T2 construct: Endogenous protein of the WE1YoeB3FL strain, co-purified with YoeB-3×FLAG
Experimental: as §1, §2, §3

T2 sequence (O07532 27-488 limits assumed): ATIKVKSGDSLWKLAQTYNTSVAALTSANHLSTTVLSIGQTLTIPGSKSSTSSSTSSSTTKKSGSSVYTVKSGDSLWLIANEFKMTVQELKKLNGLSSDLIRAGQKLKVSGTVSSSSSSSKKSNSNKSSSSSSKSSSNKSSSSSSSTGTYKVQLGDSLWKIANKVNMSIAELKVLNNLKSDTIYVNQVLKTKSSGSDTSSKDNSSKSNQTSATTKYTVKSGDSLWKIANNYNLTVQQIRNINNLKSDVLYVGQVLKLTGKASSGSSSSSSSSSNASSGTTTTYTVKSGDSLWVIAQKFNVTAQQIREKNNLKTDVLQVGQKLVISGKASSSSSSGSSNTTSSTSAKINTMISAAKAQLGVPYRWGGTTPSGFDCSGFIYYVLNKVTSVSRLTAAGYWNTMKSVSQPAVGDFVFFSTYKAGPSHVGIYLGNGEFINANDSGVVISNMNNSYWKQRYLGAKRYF
T1 sequence (P54421 26-334 limits assumed): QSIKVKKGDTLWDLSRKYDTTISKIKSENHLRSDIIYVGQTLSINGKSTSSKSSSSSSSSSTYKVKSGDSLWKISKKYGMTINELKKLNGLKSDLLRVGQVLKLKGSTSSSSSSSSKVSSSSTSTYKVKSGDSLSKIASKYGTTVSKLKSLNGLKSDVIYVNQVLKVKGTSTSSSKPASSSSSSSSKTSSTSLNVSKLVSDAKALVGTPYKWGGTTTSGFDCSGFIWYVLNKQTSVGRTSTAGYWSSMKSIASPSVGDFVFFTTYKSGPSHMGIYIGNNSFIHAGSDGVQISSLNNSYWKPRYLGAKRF

B1: YoeB-3×FLAG protein (other)
chain: KNTSGDLSQKQALQLALSAREHFWNTMSGHNPKVKKAVCPSGTFEYQNLQYVYMCSDLGTKAKAVNYLTPIFTKTAIEKGFKDYHFTVSKGKLAVPIGDGDNLLNWKKSTAKLISKKGSTITYEFTVPTLDGSPSAKRKVTFVKENKKWKVNQFDAVI
notes: Expressed in B. subtilis WE1 from pCA3FLYoeB with IPTG, extracted from the cell surface with LiCl and purified on anti-FLAG M2 gel; also called YoeB protein (bait from the WE1YoeB3FL strain); not shown: 3×FLAG tag
Q: For B1, which Integrated value [1] is on record?
A: 1250

Q: And the “Integrated value/Molecular weight” value [1]?
A: 0.03

Q: What about the “Proportion relative to YoeB (1)” value [1] of the same binder?
A: 0.05

Q: And the Integrated value [2]?
A: 989

Q: What about the “Integrated value/Molecular weight” value [2] of the same binder?
A: 0.02

Q: And the “Proportion relative to YoeB (1)” value [2]?
A: 0.03

Q: What about the Integrated value [3] of the same binder?
A: 30100

Q: What about the “Integrated value/Molecular weight” value [3] of the same binder?
A: 0.59

Q: What about the “Proportion relative to YoeB (1)” value [3] of the same binder?
A: 0.89
